Measured values from paper PMC12298772.
Where “and” joins values, the source holds several entries; their conditions need not be identical. Equal entries are not always repeated.

Experiments:
Test in all cases: Number and Brightness (N&B) fluorescence fluctuation microscopy
[1] = target: PUUV SP-mCh2-Gc (Puumala orthohantavirus glycoprotein Gc labelled with mCherry2) (Puumala orthohantavirus (PUUV), strain Sotkamo/V-2969/81)
[2] = target: PUUV SP-mCh2-Gn (Puumala orthohantavirus glycoprotein Gn labelled with mCherry2) (Puumala orthohantavirus (PUUV), strain Sotkamo/V-2969/81)
[3] = target: PUUV YFP-NP (Puumala orthohantavirus nucleoprotein labelled with yellow fluorescent protein) (Puumala orthohantavirus (PUUV), strain Sotkamo/V-2969/81) (UniProt P27313)

Which stoichiometry N [1] does the source give for “PUUV SP-mCh2-Gc (Puumala orthohantavirus glycoprotein Gc labelled with mCherry2) (natural protein)” here?
The stoichiometry N was less than 8.

Which stoichiometry N [2] does the source give for “PUUV SP-mCh2-Gn (Puumala orthohantavirus glycoprotein Gn labelled with mCherry2) (natural protein)” here?
The stoichiometry N was less than 4.

How did the stoichiometry N [3] turn out when “PUUV YFP-NP (Puumala orthohantavirus nucleoprotein labelled with yellow fluorescent protein) (from UniProt P27313 1-433) (natural protein)” was run?
The stoichiometry N was < 10 and 4 and 8.
